Reference: patent publication US20230416321A1
pKd: −log10 of the molar value.

Target: TβRII-IgG Fc fusion protein (human) (UniProt P37173)
Test: capture assay on plate-immobilised TβRII-Fc, detection biotin anti-IL-2 / streptavidin-HRP, TMB 450 nm; Kd from the capture curve

masked TGF-β1 construct, IL-2 - IgG scaffold - TβRII(Δ25, D118A) mask - TGF-β1, sequence (P01137 other isoform, or with tags, fused parts or gaps, stated change not applied): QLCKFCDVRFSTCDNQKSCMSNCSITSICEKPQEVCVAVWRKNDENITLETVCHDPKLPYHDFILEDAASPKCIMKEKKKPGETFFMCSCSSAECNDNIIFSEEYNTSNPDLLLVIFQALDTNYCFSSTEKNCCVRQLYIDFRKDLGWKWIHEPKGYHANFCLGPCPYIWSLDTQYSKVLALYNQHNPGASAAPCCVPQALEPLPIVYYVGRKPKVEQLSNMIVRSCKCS
masked TGF-β1 construct, IL-2 - IgG scaffold - TβRII(Δ25, D118A, S52L) mask - TGF-β1, sequence (P01137 other isoform, or with tags, fused parts or gaps, stated change not applied): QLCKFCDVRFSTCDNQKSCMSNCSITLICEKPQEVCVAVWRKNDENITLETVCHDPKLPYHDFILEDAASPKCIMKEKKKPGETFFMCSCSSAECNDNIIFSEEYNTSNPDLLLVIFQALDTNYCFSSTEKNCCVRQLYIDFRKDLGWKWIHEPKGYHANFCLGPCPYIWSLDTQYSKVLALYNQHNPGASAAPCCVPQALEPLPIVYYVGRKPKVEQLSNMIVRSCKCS
masked TGF-β1 construct, IL-2 - IgG scaffold - TβRII(Δ25, D118A, D32N) mask - TGF-β1, sequence (P01137 other isoform, or with tags, fused parts or gaps, stated change not applied): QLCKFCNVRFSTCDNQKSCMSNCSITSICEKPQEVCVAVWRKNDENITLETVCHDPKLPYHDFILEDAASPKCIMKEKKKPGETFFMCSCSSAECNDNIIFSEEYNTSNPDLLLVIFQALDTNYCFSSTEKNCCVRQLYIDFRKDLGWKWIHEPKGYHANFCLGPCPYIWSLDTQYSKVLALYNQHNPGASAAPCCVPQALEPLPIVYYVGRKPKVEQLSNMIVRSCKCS
masked TGF-β1 construct, IL-2 - IgG scaffold - TβRII(Δ25, D118A, E55A) mask - TGF-β1, sequence (P01137 other isoform, or with tags, fused parts or gaps, stated change not applied): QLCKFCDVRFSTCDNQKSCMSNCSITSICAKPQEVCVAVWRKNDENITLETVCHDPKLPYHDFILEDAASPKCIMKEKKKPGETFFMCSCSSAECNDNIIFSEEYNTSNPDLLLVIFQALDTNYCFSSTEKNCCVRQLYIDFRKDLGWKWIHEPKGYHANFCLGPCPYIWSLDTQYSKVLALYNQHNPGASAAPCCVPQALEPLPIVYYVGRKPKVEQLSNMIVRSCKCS

| pKd | Substance |
| --- | --- |
| 5.82 | masked TGF-β1 construct, IL-2 - IgG scaffold - TβRII(Δ25, D118A) mask - TGF-β1 (from UniProt P01137 279-390) (Fc fusion) |
| 5.23 | masked TGF-β1 construct, IL-2 - IgG scaffold - TβRII(Δ25, D118A, D32N) mask - TGF-β1 (from UniProt P01137 279-390) (Fc fusion) |
| 5.52 | masked TGF-β1 construct, IL-2 - IgG scaffold - TβRII(Δ25, D118A, E55A) mask - TGF-β1 (from UniProt P01137 279-390) (Fc fusion) |
| 3.81 | masked TGF-β1 construct, IL-2 - IgG scaffold - TβRII(Δ25, D118A, S52L) mask - TGF-β1 (from UniProt P01137 279-390) (Fc fusion) |
